Experimental data taken from PMC10641529, “Selective targeting and clustering of phosphatidylserine lipids by RSV M protein is critical for virus particle production” (The Journal of Biological Chemistry, 2023).

Experiments:
[1] = target: His6-GCN4-FCT (Histidine tag and GCN4 leucine zipper domain fused to the cytoplasmic tail of the RSV fusion (F) glycoprotein) (not stated | human respiratory syncytial virus); assay: SDS-PAGE with Western blotting; purified His-GCN4-FCT on SDS-PAGE, detected with an anti-His antibody
RSV M protein = target: T1, RSV M protein (Human respiratory syncytial virus A2, UniProt P0DOE7); assay: LUV cosedimentation, SDS-PAGE densitometry; format: binding; conditions: PC:PS (70:30) LUVs; accessible PS 50 μM to 1.5 mM; 8 μM M; 150 mM NaCl, 10 mM Tris-HCl, pH 7.4, 25 °C; acyl chains of PS not told; read-out: Kd,app
T1 construct: full-length M, recombinant from E. coli Rosetta 2 (pCDF-M); His6 tag cut with 3C protease; dimer
T1 sequence (P0DOE7 whole entry): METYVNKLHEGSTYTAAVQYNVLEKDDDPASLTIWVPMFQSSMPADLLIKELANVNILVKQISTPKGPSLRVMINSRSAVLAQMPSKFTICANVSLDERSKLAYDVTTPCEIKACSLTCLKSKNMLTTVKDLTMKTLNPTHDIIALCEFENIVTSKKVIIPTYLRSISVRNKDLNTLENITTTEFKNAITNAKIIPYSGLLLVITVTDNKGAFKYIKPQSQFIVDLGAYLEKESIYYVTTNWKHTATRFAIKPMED

| Substance | stoichiometry N [1] | Kd (RSV M protein) [µM] |
| --- | --- | --- |
| His6-GCN4-FCT (Histidine tag and GCN4 leucine zipper domain fused to the cytoplasmic tail of the RSV fusion (F) glycoprotein) | 3 |  |
| phosphatidylserine [PS] |  | 15 to 57 |
